# Assay results taken from paper PMC10689493 (2023).
# Where two headings read alike, the source gives them in different places.
# B1: S2P6 mAb (antibody, V domains shown)
# VH: EVQLVQSGAEVKKPGASVKVSCKASGYTFTSQYMHWVRQAPGQGLEWIGIINPSGVHTSYAQKFQGRVTLTRDTSTSTLYMELSSLRSEDTAVYYCARGSPKGAFDYWGQGTLVTVSS
# VL: not shown
# B2: CC40.8 mAb (antibody, V domains shown)
# VH: EVQLLESGGGLVQPGGSLRLSCAASGFTFSSYVMTWARQAPGKGLEWVSAISGTGYTYYADSVKGRFTVSRDNSKNTLFLQMSSLRAEDTAVYYCAITMAPVVWGQGTTVTVSS
# VL: SYELTQPPSVSVSPGQTARITCSGDALPKRYAYWYQQKSGQAPILVIYEDKKRPSGIPERLSGSKSGTVATLTISGAQVEDEADYYCYSTDSSGNHAVFGGGTQLTVL
# B3: DH1057.1 mAb (antibody, V domains shown)
# VH: EVQLVESGTEVKKPGASVKVSCKTSGYIFTNYYIHWVRQAPGQGLEWMGIFNPNGGGTSYAQKFQGRITLTGNTSANTGYMVLRSLTSEDTAVYYCARDPRTSGDNDGFDMWGQGTKVTVSS
# VL: VLTQSPATLSLSPGERATLSCRASQSLSSYNYLAWYQQKPGQAPRLLIYAASKRATGIPARFSGSGSGTDFTLTISSLEPEDFAVYFCQQRSNRPPAWTFGQGTKVEIK
# Experiments:
# Experiment in all cases: SPR
# DH1057UCA = biological target: DH1057UCA
# CC40.8iGL = biological target: CC40.8iGL
# S2P6iGL = biological target: S2P6iGL
# S2P6 mAb [1] = biological target: B1
# CC40.8 mAb = biological target: B2
# DH1057.1 mAb [2] = biological target: B3
# S2P6 mAb [3] = biological target: B1; remark: listed apart in the source
# DH1057.1 mAb [4] = biological target: B3; remark: listed apart in the source
# [5] = biological target: S2hlx-Ex17 epitope scaffold
# [6] = biological target: S2hlx-Ex20 epitope scaffold
# [7] = biological target: S2hlx-Ex15 epitope scaffold
# S2hlx-13 = biological target: S2hlx-13
# [8] = biological target: S2hlx-15 epitope scaffold
# S2hlx-4 epitope scaffold = biological target: S2hlx-4 epitope scaffold
# S2hlx-14 = biological target: S2hlx-14
# S2hlx-1 = biological target: S2hlx-1
# S2hlx-8 = biological target: S2hlx-8
# FP-10 epitope scaffold = biological target: FP-10 epitope scaffold
# FP-2 epitope scaffold = biological target: FP-2 epitope scaffold
# S2P6 mAb [9] = biological target: B1; remark: listed apart in the source
# DH1057.1 mAb [10] = biological target: B3; remark: listed apart in the source
# S2P6 mAb [11] = biological target: B1; remark: listed apart in the source
# DH1057.1 mAb [12] = biological target: B3; remark: listed apart in the source
Binder,Kd [5] [nM],koff [5] [s⁻¹],Kd [6] [nM],koff [6] [s⁻¹],Kd [7] [nM],koff [7] [s⁻¹],Kd (S2hlx-13) [nM],koff (S2hlx-13) [s⁻¹],Kd [8] [nM],koff [8] [s⁻¹],Kd (S2hlx-4 epitope scaffold) [nM],koff (S2hlx-4 epitope scaffold) [s⁻¹],Kd (S2hlx-14) [nM],koff (S2hlx-14) [s⁻¹],Kd (S2hlx-1) [nM],koff (S2hlx-1) [s⁻¹],Kd (S2hlx-8) [nM],koff (S2hlx-8) [s⁻¹],further results
S2hlx-Ex19 epitope scaffold (designed binder) MNLDSFKEELDDYFKEKIVKEFEKLCKELISKYEVKKPTPSPEIKKICEYLKKKHEELKDKYPEEFVKEIFKKMWEVFKKELSKQLKKLGVTNDGGEKYKIVKEDLNYLVDVIKSLEGLSDLDLNWEEIWN,,,,,,,,,,,,,,,,,,,Kd (DH1057UCA): 3.08 µM; koff (DH1057UCA): 0.0019 s⁻¹; Kd (CC40.8iGL): 94.1 nM; koff (CC40.8iGL): 0.028 s⁻¹; Kd (S2P6iGL): 690 nM; koff (S2P6iGL): 0.0018 s⁻¹; koff (S2P6 mAb [1]): 0.00033 s⁻¹; koff (CC40.8 mAb): 0.02 s⁻¹; koff (DH1057.1 mAb [2]): 0.027 s⁻¹; Kd (S2P6 mAb [3]): 1.7 nM; Kd (DH1057.1 mAb [4]): 15.5 nM
B1,29.6,0.0082,10.7,0.00042,6,0.0086,83,0.0017,0.7,0.0018,47.7,0.00048,30,0.0016,52.8,0.0027,63,0.00021,
"DH1058 mAb (antibody, V domains shown) VH: QVQLVQSGGGVVQPGRSLRLSCAASGFNFGDFGMHWVRQAPGKGLEWVAVISYEGRNKNHADSVRGRFTISRDNSRNMLYLQMNSLRRGDTAVYYCAKENRDRNYDSWSASYSDYYYGMDVWGQGTTVTVSS VL: DIVMTQSPSFLSASVGDRVTITCRASQGIDRYLAWYQQKPGSAPKLLIYAASTLQSGVPSRFSGSGSETDFTLTISSLQPDDFATYYCQQLSTYPTITFGQGTRLEIK",,,,,,,,,,,,,,,,,,,Kd (FP-10 epitope scaffold): 0.3 nM; koff (FP-10 epitope scaffold): 0.00068 s⁻¹; Kd (FP-2 epitope scaffold): 0.1 nM; koff (FP-2 epitope scaffold): 0.00066 s⁻¹
B2,27.1,0.061,10.6,0.011,3.4,0.0085,,,,,,,,,,,,,
S2hlx-7 epitope scaffold (designed binder) MTSTFDRVATIIAETADIPRETITPESHAIDDLGIDELDFLDIAFAIDKAFGISLPLFKWELDVYFGSATTEQYFVLKNLAARIDELVAAKGA,,,,,,,,,,,,,,,,,,,Kd (S2P6 mAb [9]): 0.2 nM; Kd (DH1057.1 mAb [10]): 0.6 nM; koff (S2P6 mAb [11]): 0.0025 s⁻¹; koff (DH1057.1 mAb [12]): 0.0026 s⁻¹
B3,12.8,0.014,48.9,0.026,1.7,0.00037,176,0.0032,0.6,0.0014,4480,0.037,404,0.018,353,0.0091,175,0.0015,
